The values below come from patent US20150152192A1 (SAMSUNG ELECTRONICS, published 2015).

The labels stand for the following.
T1: mouse Ang2 (Accession # NP-031452) (R&D Systems) (mouse, UniProt O35608 19-496, limits assumed)
T1 construct: Bought protein; also called mAng2
T1 sequence (looked up): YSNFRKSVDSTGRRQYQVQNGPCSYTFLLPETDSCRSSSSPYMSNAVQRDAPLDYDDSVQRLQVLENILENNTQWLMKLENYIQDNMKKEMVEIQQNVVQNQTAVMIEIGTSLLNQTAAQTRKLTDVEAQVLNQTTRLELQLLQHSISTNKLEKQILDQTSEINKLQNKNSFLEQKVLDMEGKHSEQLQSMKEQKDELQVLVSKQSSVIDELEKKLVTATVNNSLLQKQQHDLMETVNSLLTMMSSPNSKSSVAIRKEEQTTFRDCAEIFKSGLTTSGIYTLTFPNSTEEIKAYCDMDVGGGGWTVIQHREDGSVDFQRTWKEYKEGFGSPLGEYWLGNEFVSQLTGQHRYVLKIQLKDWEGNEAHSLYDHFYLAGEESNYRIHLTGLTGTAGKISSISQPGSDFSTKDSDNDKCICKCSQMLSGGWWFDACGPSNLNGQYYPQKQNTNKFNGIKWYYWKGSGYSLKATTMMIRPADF

T2: recombinant hAng2 (C-His, R&D Systems) (human, UniProt O15123 19-496)
T2 construct: Bought protein captured on an anti-His chip; not shown: C-terminal His tag
T2 sequence: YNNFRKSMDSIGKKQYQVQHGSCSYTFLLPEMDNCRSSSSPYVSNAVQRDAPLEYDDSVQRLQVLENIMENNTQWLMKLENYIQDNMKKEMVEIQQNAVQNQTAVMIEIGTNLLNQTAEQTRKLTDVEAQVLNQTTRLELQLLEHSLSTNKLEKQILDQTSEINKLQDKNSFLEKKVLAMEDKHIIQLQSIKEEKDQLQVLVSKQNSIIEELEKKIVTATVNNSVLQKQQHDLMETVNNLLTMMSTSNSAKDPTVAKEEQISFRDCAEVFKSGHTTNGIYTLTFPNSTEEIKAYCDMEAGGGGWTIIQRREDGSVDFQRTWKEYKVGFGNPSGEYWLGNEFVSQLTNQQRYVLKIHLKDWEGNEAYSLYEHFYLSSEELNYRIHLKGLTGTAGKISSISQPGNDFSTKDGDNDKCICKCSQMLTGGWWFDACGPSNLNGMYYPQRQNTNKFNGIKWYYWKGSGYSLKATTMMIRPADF

B1: SAIT-ANG-2-AB-4-F11 (IgG form) (antibody, V domains shown)
VH: EVQLLESGGGLVQTGGSLRLSCAASGFTFSDYAMSWVRQAPGKGLEWVSSIYPDDGNTYYADSVKGRFTISRDNSKNTLYLQMNSLRAEDTAVYYCAKHPVRLNLHPMYYYYGMDVWGQGTLVTVSS
VL: QSVLTQPPSASGTPGQRVTISCTGSSSNIGNNAVSWYQQLPGTAPKLLIYSDSQRPSGVPDRFSGSKSGTSASLAISGLRSEDEADYYCATWDYSLSAYVFGGGTKLTVLG
notes: Intact human antibody with human IgG1 constant region
B2: SAIT-ANG-2-AB-4-F5 (IgG form) (antibody, V domains shown)
VH: EVQLLESGGGLVQPGGSLRLSCAASGFTFSDYDMSWVRQAPGKGLEWVSSISHGDSNKYYADSVKGRFTISRDNSKNTLYLQMNSLRAEDTAVYYCAKSSGIQESPPTYYYYGMDVWGQGTLVTVSS
VL: B1 VL with T23S, N31S, S35N, S51A, Q54N, A90G, T91S, A98G
notes: as for B1
B3: SAIT-ANG-2-AB-8-A5 (IgG form) (antibody, V domains shown)
VH: EVQLLESGGGLVQPGGSLRLSCAASGFTFSDYYMSWVRQAPGKGLEWVSGIYPSGGSTYYADSVKGRFTISRDNSKNTLYLQMNSLRAEDTAVYYCARDPSTLTYAGFDYWGQGTLVTVSS
VL: B1 VL with T23S, A33Y, S35T, S51A, Q54H, A98G
notes: as for B1
B4: SAIT-ANG-2-AB-2-E6 (IgG form) (antibody, V domains shown)
VH: EVQLLESGGGLVQTGGSLRLSCAASGFTFSDYAMSWVRQAPGKGLEWVSAIYPDSGNKYYADSVKGRFTISRDNSKNTLYLQMNSLRAEDTAVYYCARHSSDPKVKSGYYDDGMDVWGQGTLVAVSS
VL: B1 VL with T23S, S35N, S51A, Q54N, A90G, T91S, A98G
notes: Intact human antibody: VH cloned into a vector with the constant region and Fc region of human IgG1, VL into pFUSE2-CLIg-hl2 (light chain constant region)
B5: SAIT-ANG-2-AB-4-C11 (IgG form) (antibody, V domains shown)
VH: EVQLLESGGGLVQPGGSLRLSCAASGFTFSDYAMSWVRQAPGKGLEWVSSIYPDDGNTYYADSVKGRFTISRDNSKNTLYLQMNSLRAEDTAVYYCARHTSHHTSIDGYYYYGMDGWGQGTLVTVSS
VL: B1 VL with A33D, Q54K, A90G, T91S, A98G
notes: as for B1
B6: SAIT-ANG-2-AB-7-C9 (IgG form) (antibody, V domains shown)
VH: EVQLLESGGGLVQPGGSLRLSCAASGFTFSNYAMSWVRQAPGKGLEWVSAISSGGGNIYYADSVKGRFTISRDNSKNTLYLQMNSLRAEDTAVYYCAKSGIQPSPPSMSSAYAMDVWGQGTLVTVSS
VL: B1 VL with T23S, A33D, S35Y, S51A, D52N, Q54H, A90G, A98G
notes: as for B1
B7: SAIT-ANG-2-AB-3-D3 (IgG form) (antibody, V domains shown)
VH: EVQLLESGGGLVQPGGSLRLSCAASGFTFSDYDMSWVRQAPGKGLEWVSGISSDDGNTYYADSVKGRFTISRDNSKNTLYLQMNSLRAEDTAVYYCARPTIDKYTLRGYYSYGMDVWGQGTLVTVSS
VL: B1 VL with N31S, A33Y, S53N, Q54K, A90G, Y94D, S97N, A98G
notes: as for B1
B8: FLAG-Tagged hAng2 (ligand)
chain: DYKDDDDKYNNFRKSMDSIGKKQYQVQHGSCSYTFLLPEMDNCRSSSSPYVSNAVQRDAPLEYDDSVQRLQVLENIMENNTQWLMKLENYIQDNMKKEMVEIQQNAVQNQTAVMIEIGTNLLNQTAEQTRKLTDVEAQVLNQTTRLELQLLEHSLSTNKLEKQILDQTSEINKLQDKNSFLEKKVLAMEDKHIIQLQSIKEEKDQLQVLVSKQNSIIEELEKKIVTATVNNSVLQKQQHDLMETVNNLLTMMSTSNSAKDPTVAKEEQISFRDCAEVFKSGHTTNGIYTLTFPNSTEEIKAYCDMEAGGGGWTIIQRREDGSVDFQRTWKEYKVGFGNPSGEYWLGNEFVSQLTNQQRYVLKIHLKDWEGNEAYSLYEHFYLSSEELNYRIHLKGLTGTAGKISSISQPGNDFSTKDGDNDKCICKCSQMLTGGWWFDACGPSNLNGMYYPQRQNTNKFNGIKWYYWKGSGYSLKATTMMIRPADF
notes: also called FLAG-Ang2; non-mutated Ang2

Changes are numbered by the printed parent chain.

In the test “FLAG-Tagged hAng2” the target is B8. In words: competitive ELISA: hTie2-Fc coated, 400 ng/ml FLAG-hAng2 plus IgG, anti-FLAG-HRP. The procedure: To verify molecular interaction of the bound assemblies, a competitive ELISA was performed. A 96-well MaxiSorp™ flat-bottom plate (Nunc) was coated with […] of hTie2-Fc (R&D Systems), which is a protein with the Fc of human IgG1 bound thereto. After that, the plate was washed five times with 0.05% (v/v) Tween-20-containing PBS (Phosphate Buffer Saline) and then blocked with 1% (v/v) BSA (Bovine serum albumin; Sigma)-containing PBS at a room temperature for 2 hours.
(§1) Thereafter, the plate was washed five times with 0.05% Tween-20-containing PBS and then, an HRP-conjugated anti-FLAG antibody (SIGMA) diluted in 1% (v/v) BSA-containing PBS at 1:5,000 ratio (v/v) was added in the amount of 100 μl to each well to react at a room temperature for 1 hour, followed by washing five times with 0.1% (v/v) Tween-20-containing PBS. Finally, 100 μl of TMB substrate (cell signal) was added to each well of the plate to induce color development at a room temperature for 3 min. Then, the reaction was ceased by the addition of 50 μl of 5N H₂SO₄ solution and OD450 values were measured on a plate reader (Molecular Devices).
Background: An ELISA detects its analyte on a solid surface through an enzyme-linked reagent.

For test [1], the target named is T1, mouse Ang2 (Accession # NP-031452) (R&D …). The test is described as follows: ELISA, antigen coated, IgG, anti-hFc-HRP; 50% binding concentration (Kd). The procedure: To measure binding of the antibodies prepared above with each antigen, ELISA was performed. A 96-well MaxiSorp™ flat-bottom plate (Nunc) was coated with 5˜20 μg/ml of human Ang2 and mouse Ang2 (Accession # NP_{—}031452) (both, R&D Systems). After that, the plate was washed five times with 0.05% (v/v) Tween-20-containing PBS and then blocked with 1% (v/v) BSA-containing PBS at a room temperature for 2 hours. The anti-Ang2 antibodies in their IgG forms prepared above (0.001, 0.01, 0.1, 1, 10, 100, and 1000 nM) were added to each well of the plate which was then allowed to react at a room temperature for 2 hours.
as §1, with “HRP-conjugated anti-human FC (Anti-hFc-HRP conjugated)” for “HRP-conjugated anti-FLAG”, “of 50” for “of 100”, “3 min and then,” for “3 min. Then,”

Test [2] concerns the target T2, recombinant hAng2 (C-His, R&D Systems). The test is described as follows: SPR, BIAcore T100, hAng2-His captured on anti-His CM5 chip, antibody flowed. The procedure:
To measure accurate affinities toward an anti-Ang2 antigen, antigen affinities were measured by a SPR method using a BIAcore T100 (GE Healthcare). The SPR method uses refractive index change of light which passes a sensor chip according to the state of materials coated onto the sensor chip, and if an antigen or an antibody is flowed onto a chip coated with the antigen or antibody, it causes changes in refractive index due to their binding and Kd values are thus calculated from the measured values.
First, anti-His antibody was immobilized on a CM5 sensor chip (GE healthcare) up to 8,000 RU levels using a pH 5.0 acetate solution and an amine coupling kit (GE Healthcare). 6 μg/ml of a recombinant hAng2 (C-His, R&D Systems) protein was flowed onto the chip to be captured at 100 to 200 RU levels.
A general note: Surface plasmon resonance follows binding to a sensor surface in real time, without labels.

The target in test [3] is T3, integrin alpha5beta1 (α5β1; R&D systems) (human, UniProt P08648 42-995; P05556 21-728, limits assumed).
T3 construct: Bought heterodimer
T3 sequence (P08648 42-995 limits assumed, chain 1 of 2): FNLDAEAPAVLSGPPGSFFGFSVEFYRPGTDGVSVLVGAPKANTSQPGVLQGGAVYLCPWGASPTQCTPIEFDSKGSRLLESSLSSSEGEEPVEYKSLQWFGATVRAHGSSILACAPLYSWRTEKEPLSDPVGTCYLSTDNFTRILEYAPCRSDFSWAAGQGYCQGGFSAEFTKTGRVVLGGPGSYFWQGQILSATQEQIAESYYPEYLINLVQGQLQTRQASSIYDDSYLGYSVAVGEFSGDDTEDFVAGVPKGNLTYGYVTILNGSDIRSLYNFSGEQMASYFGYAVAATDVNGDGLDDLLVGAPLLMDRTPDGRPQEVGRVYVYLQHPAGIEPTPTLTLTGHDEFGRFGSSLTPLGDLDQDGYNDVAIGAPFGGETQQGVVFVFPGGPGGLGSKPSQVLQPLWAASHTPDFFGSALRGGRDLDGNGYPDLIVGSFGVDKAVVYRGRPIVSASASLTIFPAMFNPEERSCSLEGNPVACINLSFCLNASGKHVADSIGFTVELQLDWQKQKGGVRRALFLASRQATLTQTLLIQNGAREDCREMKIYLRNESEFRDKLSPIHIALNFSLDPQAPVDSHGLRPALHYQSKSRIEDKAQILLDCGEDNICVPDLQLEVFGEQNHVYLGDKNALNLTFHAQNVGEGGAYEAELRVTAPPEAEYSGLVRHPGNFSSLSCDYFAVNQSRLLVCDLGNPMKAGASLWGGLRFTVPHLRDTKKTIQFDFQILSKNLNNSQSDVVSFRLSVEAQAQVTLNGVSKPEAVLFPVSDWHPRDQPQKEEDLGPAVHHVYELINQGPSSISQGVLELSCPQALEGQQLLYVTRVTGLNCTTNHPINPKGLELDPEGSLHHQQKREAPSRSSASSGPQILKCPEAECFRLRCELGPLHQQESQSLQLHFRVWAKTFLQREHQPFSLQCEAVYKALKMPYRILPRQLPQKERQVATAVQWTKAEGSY
T3 sequence (P05556 21-728 limits assumed, chain 2 of 2): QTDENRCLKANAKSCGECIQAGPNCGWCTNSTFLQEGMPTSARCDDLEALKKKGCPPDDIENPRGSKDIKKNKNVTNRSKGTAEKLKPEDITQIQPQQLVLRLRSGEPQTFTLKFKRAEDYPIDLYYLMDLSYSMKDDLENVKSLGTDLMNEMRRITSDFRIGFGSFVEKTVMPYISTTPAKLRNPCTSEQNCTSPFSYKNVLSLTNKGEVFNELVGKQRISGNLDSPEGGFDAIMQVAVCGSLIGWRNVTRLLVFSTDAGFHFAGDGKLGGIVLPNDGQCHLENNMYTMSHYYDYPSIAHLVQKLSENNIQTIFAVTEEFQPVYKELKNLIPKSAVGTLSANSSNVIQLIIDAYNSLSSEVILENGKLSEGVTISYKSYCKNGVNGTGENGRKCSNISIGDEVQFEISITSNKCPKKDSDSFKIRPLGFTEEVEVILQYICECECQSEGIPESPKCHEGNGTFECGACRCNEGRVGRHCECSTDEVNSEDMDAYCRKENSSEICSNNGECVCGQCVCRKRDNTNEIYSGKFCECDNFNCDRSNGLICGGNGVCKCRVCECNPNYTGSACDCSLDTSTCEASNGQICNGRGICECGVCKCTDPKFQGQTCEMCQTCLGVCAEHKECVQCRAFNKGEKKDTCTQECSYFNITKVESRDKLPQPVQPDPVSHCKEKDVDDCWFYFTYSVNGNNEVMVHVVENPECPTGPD
In words: ELISA: integrin alpha5beta1 coated at 5 ug/ml, FLAG-Ang2 at 10 ug/ml, detection with anti-FLAG-HRP, A450. Here is the method: After that, an anti-FLAG antibody (Sigma) conjugated with horseradish peroxidase (HRP) was added to react, and the plate was washed again five times with PBS-t. Bindings between Ang2 and the above the integrin were identified indirectly by measuring the amounts of the anti-FLAG antibody remaining in the ELISA plate via color development using TMB (3,3,5,5-tetramethylbenzidine) as a substrate of HRP. As positive controls, control antibody 1 (Regeneron Ang2 antibody) and control antibody 2 (Astra Zeneca Ang2 antibody) were used. Also, to show the background, a group coated with BSA instead of integrin was used.

As usually defined, the IC50 is the midpoint of a concentration-inhibition curve. Broadly, the Kd is a measure of binding affinity in units of concentration. One may read the koff as the first-order rate constant of dissociation. Broadly, the kon is the rate constant with which the complex forms. B1: the IC50 in the test with FLAG-Tagged hAng2 came to 0.37 nM. The same molecule returned a Kd in test [1] of 0.36 nM. Besides, in test [2], the dissociation constant (Kd) is 0.44 nM, the koff came out at 0.000777 s⁻¹ and the on-rate constant (kon) was 1.76e+06 M⁻¹ s⁻¹.

On to B2, for which, in the test with FLAG-Tagged hAng2, the IC50 stood at 1.52 nM. In addition, in test [2], the Kd is 0.589 nM, the koff came out at 0.00112 s⁻¹ and the on-rate (kon) turned out to be 1.9e+06 M⁻¹ s⁻¹.

As for B3, the concentration for half-maximal inhibition (IC50) with FLAG-Tagged hAng2 amounted to 0.341 nM. This molecule also displayed a Kd in test [1] of 0.19 nM. Moreover, in test [2], the Kd amounted to 0.074 nM, the off-rate constant (koff) was 0.000327 s⁻¹ and the kon came out at 4.4e+06 M⁻¹ s⁻¹.

Regarding B4, the IC50 in the test with FLAG-Tagged hAng2 came out at 0.605 nM. The molecule also returned a Kd in test [1] of 0.35 nM. Also, in test [2], the Kd was determined as 0.65 nM, the koff stood at 0.000795 s⁻¹ and the kon turned out to be 1.22e+06 M⁻¹ s⁻¹.

On to B5, for which the IC50 in the test with FLAG-Tagged hAng2 came to 0.421 nM. In addition, in test [1], the equilibrium dissociation constant (Kd) turned out to be 0.28 nM. Further, in test [2], the Kd turned out to be 0.588 nM, the koff amounted to 0.00049 s⁻¹ and the kon stood at 833000 M⁻¹ s⁻¹.

Consider B6, for which the IC50 in the test with FLAG-Tagged hAng2 was 0.392 nM. Besides, in test [2], the Kd worked out at 0.205 nM, the koff is 0.000366 s⁻¹ and the kon turned out to be 1.78e+06 M⁻¹ s⁻¹.

In the case of B7, the IC50 with FLAG-Tagged hAng2 turned out to be 0.44 nM. The same molecule returned a Kd in test [1] of 0.3 nM. Further, in test [2], the equilibrium dissociation constant (Kd) amounted to 0.47 nM, the koff turned out to be 0.000546 s⁻¹ and the kon is 1.16e+06 M⁻¹ s⁻¹.

For B8, in test [3], the binding result was “binds”.
